Target: murine IgG heavy chain (murine)
Assay: immunoprecipitation with anti-mouse IgG and non-reducing SDS-PAGE

stoichiometry N: 2
Substance: murine IgG heavy chain
